Measured values from paper PMC3181058.

Molecular target: Protein A (Staphylococcus aureus) (UniProt P38507)
Experiment: ITC

dH | stoichiometry N | KA, first binding site | N, first binding site | dH, first binding site | Substance
-105 kcal/mol | 2.78 |  |  |  | Trastuzumab (Herceptin), free monoclonal antibody
 |  | 3.48e+06 M⁻¹ | 1.65 | -93.9 kcal/mol | Nanoparticle-conjugated trastuzumab (CS-DOX-mAb) (antibody)
